# US20260000781A1, “FC CONJUGATES INCLUDING AN INHIBITOR OF CD73 AND USES THEREOF” (Cidara Therapeutics, Inc., priority 2022, published 2026)
# Where two headings read alike, the source gives them in different places.
# Key:
# [1] = target: T1, human CD73 expressed on cells (human) (UniProt P21589); test: flow cytometry, MDA-MB-231 cells, anti-human Fc detection, gMFI; with 10 µM AMP
# T1 sequence (looked up): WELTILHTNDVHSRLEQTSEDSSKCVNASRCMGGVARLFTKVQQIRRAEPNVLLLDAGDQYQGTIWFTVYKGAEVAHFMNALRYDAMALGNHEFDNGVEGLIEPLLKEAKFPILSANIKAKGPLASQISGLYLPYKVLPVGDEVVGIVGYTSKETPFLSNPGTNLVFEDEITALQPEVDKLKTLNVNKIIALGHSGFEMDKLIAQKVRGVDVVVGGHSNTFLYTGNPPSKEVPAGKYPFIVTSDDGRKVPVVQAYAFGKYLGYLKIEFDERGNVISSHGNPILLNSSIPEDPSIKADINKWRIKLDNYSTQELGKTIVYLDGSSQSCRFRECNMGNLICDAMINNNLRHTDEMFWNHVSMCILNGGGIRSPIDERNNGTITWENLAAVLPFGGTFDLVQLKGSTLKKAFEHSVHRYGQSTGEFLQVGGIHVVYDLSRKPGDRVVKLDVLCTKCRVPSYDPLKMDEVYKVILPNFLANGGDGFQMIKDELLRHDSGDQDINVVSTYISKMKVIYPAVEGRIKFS
# [2] = target: T1, human CD73 expressed on cells (human); test: flow cytometry, MDA-MB-231 cells, anti-human Fc detection, gMFI; with 1 nM AB680
# [3] = target: T1, human CD73 expressed on cells (human); test: flow cytometry, MDA-MB-231 cells, anti-human Fc detection, gMFI; with 10 nM AB680
# [4] = target: T1, human CD73 expressed on cells (human); test: cell-based or functional assay
# [5] = target: T1, human CD73 expressed on cells (human); test: flow cytometry, MDA-MB-231 cells, anti-human Fc detection, gMFI
# [6] = target: T1, human CD73 expressed on cells (human); test: flow cytometry, MDA-MB-231 cells, anti-human Fc detection, gMFI; 0 µM AMP
# [7] = target: T1, human CD73 expressed on cells (human); test: flow cytometry, MDA-MB-231 cells, anti-human Fc detection, gMFI; with 100 nM AB680
# [8] = target: T1, human CD73 expressed on cells (human); test: flow cytometry, MDA-MB-231 cells, anti-human Fc detection, gMFI; with 100 µM AMP
# [9] = target: T1, human CD73 expressed on cells (human); test: flow cytometry, MDA-MB-231 cells, anti-human Fc detection, gMFI; with 1,000 µM AMP
# [10] = target: T1, human CD73 expressed on cells (human); test: flow cytometry, MDA-MB-231 cells, anti-human Fc detection, gMFI; with 100 nM AB680; remark: listed apart in the source
# [11] = target: T1, human CD73 expressed on cells (human); test: flow cytometry, MDA-MB-231 cells, anti-human Fc detection, gMFI; 0 nM AB680
# [12] = target: T1, human CD73 expressed on cells (human); test: flow cytometry, MDA-MB-231 cells, anti-human Fc detection, gMFI; with 10 nM AB680; remark: listed apart in the source
# [13] = target: T1, human CD73 expressed on cells (human); test: flow cytometry, MDA-MB-231 cells, anti-human Fc detection, gMFI; with 10 µM AMP; remark: listed apart in the source
# [14] = target: T1, human CD73 expressed on cells (human); test: cell-based or functional assay; remark: listed apart in the source
# [15] = target: T1, human CD73 expressed on cells (human); test: flow cytometry, MDA-MB-231 cells, anti-human Fc detection, gMFI; no AMP
# [16] = target: T1, human CD73 expressed on cells (human); test: flow cytometry, MDA-MB-231 cells, anti-human Fc detection, gMFI; with 1,000 µM AMP; remark: listed apart in the source
# [17] = target: T1, human CD73 expressed on cells (human); test: flow cytometry, MDA-MB-231 cells, anti-human Fc detection, gMFI; no AB680 (column headed No AMP)
# [18] = target: T1, human CD73 expressed on cells (human); test: flow cytometry, MDA-MB-231 cells, anti-human Fc detection, gMFI; with 1 nM AB680; remark: listed apart in the source
# [19] = target: T1, human CD73 expressed on cells (human); test: flow cytometry, MDA-MB-231 cells, anti-human Fc detection, gMFI; with 100 µM AMP; remark: listed apart in the source
# [20] = target: T1, human CD73 expressed on cells (human); test: flow cytometry, MDA-MB-231 cells, PE anti-human Fc detection, % labelled cells
# [21] = target: T2, recombinant human CD73 enzyme (human) (UniProt P21589); test: cell-based or functional assay
# T2 sequence (looked up): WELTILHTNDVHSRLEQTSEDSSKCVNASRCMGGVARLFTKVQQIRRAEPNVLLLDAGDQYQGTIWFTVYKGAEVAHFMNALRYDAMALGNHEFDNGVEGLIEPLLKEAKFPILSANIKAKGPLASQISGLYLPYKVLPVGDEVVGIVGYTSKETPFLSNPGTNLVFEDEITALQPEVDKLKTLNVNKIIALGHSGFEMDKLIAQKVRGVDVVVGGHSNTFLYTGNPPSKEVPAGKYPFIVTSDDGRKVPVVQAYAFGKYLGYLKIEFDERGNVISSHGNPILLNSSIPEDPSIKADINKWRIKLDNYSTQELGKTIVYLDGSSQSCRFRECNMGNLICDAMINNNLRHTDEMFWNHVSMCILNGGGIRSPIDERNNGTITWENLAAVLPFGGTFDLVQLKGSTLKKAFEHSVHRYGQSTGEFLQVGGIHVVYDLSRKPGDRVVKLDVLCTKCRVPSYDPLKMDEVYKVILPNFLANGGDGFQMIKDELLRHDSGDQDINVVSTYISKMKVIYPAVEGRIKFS
# [22] = target: T1, human CD73 expressed on cells (human); test: cell-based or functional assay; remark: listed apart in the source
binder,measurement,setting,value
"Mupadolimab (antibody, INN chains, looked up, V domains shown) VH: QVQLVQSGAEVEKPGASVKVSCKASGYTFTSYWITWVRQAPGQGLEWMGDIYPGSGNTNYNEKFKTRVTITADKSTSTAYMELSSLRSEDTAVYYCAKEGGLTTEDYALDYWGQGTLVTVSS VL: EIVLTQSPATLSLSPGERATLSCRASKNVSTSGYSYMHWYQQKPGQAPRLLIYLASNLESGIPPRFSGSGYGTDFTLTINNIESEDAAYYFCQHSRELPFTFGQGTKVEIK",IC50,[1],0.048 nM
same,IC50,[2],1.39 nM
same,IC50,[3],1.54 nM
same,"Cell internalization EC50 (nM), Fab-ZAP saporin assay, MDA-MB-231",[4],0.06 nM
same,fold reduction of binding at high AMP concentration,[5],2 fold
same,IC50,[6],0.1 nM
same,IC50,[7],8.48 nM
same,IC50,[8],0.12 nM
same,IC50,[9],0.2 nM
same,IC50,[10],4.19 nM
same,IC50,[11],0.1 nM
same,IC50,[12],2.59 nM
same,IC50,[13],0.12 nM
same,"% CD73 receptor internalization, MDA-MB-231",[14],> 60%
same,IC50,[15],0.025 nM
same,IC50,[16],0.14 nM
same,IC50,[17],0.09 nM
same,IC50,[18],0.88 nM
same,IC50,[19],0.16 nM
same,EC50,[20],1.25 nM
same,Cell free CD73 inhibition IC50,[21],> 100 nM
same,"% CD73 receptor internalization, MDA-MB-231",[22],> 70%
same,"CD73 inhibition, human PBMCs, 3 h IC50 [nM]",[22],2.85 nM
same,"CD73 inhibition, human PBMCs, 3 h median IC50 [nM]",[22],9.27 nM
same,"CD73 inhibition, human PBMCs, 24 h IC50 [nM]",[22],44.2 nM
same,"CD73 inhibition, human PBMCs, 24 h median IC50 [nM]",[22],29.9 nM
same,"Cell internalization EC50 (nM), Fab-ZAP saporin assay, MDA-MB-231",[22],0.055 nM
same,"Cell-based CD73 inhibition IC50 (nM), MDA-MB-231 cells",[22],3.82 nM
same,"PBMC activation (CD25+), 30 µM AMP EC50 [nM]",[22],576 nM
same,"PBMC activation, CD4+CD25+ EC50 [nM] (median, n = 3)",[22],28 nM
same,"PBMC activation, CD8+CD25+ EC50 [nM]",[22],932 nM
same,"PBMC activation, CD8+CD25+ EC50 [nM] (median, n = 3)",[22],84 nM
same,"PBMC activation, CD8+Granzyme B+ EC50 [nM] (median, n = 3)",[22],83 nM
same,"PBMC activation, CD8+granzyme B+ EC50 [nM]",[22],63.1 nM
same,cell-based CD73 enzyme inhibition IC50 (MDA-MB-231 cells),[22],1.16 nM
same,"inhibition of adenosine production (AMP conversion by CellTiter-Glo), human PBMCs, EC50 [nM]",[22],10 nM
